Experimental findings from US20240182575A1 are described below.

Assay [1] has as its target HuCTLA4-HuIgG1 (fusion protein of the extracellular part of human CD152 and human Fc gamma 1, CTLA4-Ig) (human) (UniProt P16410). Nature of the assay: alphascreen, CTLA4-Fc; blocked ligand biotinylated CD80-Fc.
Assay [2] concerns the target human CTLA4 (Y201 mutated to valine) on stably transfected CHO-K1 cells (human) (UniProt P16410). Briefly: FACS competition, human CTLA4 CHO cells; blocked ligand HuB7.1/Fc.
Assay [3] has as its target rhB7-H2-Fc (fusion protein of the extracellular part of human B7-H2 (ICOSL) and mouse Fc gamma 1, R&D Systems Cat #165-B7) (human; mouse) (UniProt O75144). Briefly: competition ELISA, coated B7-H2; competes with ICOS-biotin.

Chain of HuCTLA4-HuIgG1 (fusion protein of the extracellular part of human CD152 and human Fc gamma 1, CTLA4-Ig) (human) (P16410 36-161 limits assumed): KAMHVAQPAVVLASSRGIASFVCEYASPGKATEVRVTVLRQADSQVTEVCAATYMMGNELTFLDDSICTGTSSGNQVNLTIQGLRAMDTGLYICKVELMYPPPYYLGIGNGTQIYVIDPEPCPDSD
Chain of human CTLA4 (Y201 mutated to valine) on stably transfected CHO-K1 cells (human) (P16410 other isoform, or with tags, fused parts or gaps, change not shown): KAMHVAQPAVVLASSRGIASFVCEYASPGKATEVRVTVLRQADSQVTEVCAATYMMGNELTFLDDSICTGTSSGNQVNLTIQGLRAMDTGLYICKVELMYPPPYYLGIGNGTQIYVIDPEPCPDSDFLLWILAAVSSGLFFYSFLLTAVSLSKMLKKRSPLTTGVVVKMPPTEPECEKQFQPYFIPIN
Chain of cold ICOS (receptor) (Q9Y6W8 21-140): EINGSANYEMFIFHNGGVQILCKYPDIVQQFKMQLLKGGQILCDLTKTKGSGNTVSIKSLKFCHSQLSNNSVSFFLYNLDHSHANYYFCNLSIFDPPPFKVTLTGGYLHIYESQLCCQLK
Chain of rhB7-H2-Fc (fusion protein of the extracellular part of human B7-H2 (ICOSL) and mouse Fc gamma 1, R&D Systems Cat #165-B7) (human; mouse) (O75144 other isoform, or with tags, fused parts or gaps limits assumed): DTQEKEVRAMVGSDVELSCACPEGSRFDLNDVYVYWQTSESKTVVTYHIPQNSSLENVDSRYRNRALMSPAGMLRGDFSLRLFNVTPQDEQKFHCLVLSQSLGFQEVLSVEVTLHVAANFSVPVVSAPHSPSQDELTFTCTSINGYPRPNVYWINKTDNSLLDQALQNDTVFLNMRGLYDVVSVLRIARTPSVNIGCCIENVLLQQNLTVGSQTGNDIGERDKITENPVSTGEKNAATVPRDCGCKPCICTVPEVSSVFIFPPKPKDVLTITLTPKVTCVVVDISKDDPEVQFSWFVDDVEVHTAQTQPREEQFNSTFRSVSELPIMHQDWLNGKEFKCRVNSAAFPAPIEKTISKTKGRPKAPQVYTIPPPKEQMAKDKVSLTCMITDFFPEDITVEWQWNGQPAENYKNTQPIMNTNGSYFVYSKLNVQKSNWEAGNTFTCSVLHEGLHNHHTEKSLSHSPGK

In assay [1], BNI3 fab showed an IC50 (read off the curve) of 2 nM.

As for “Mouse-anti-human CTLA4 clone BNI3 (antibody)”, the IC50 (read off the curve) amounted to 0.3 nM in assay [1] and 10 nM in assay [2].

For cold ICOS (receptor), in assay [3], the IC50 (read off the curve) turned out to be 20 nM.
